In the supplement of paper PMC10567573:
± gives the standard deviation.

Assay: protein stability index of a GFP-peptide fusion (GPS, HEK-293T) (PSI 1-6); higher = more stable
[1] = treatment: DMSO, c terminus: a fixed tail appended
[2] = treatment: MLN4924 1 uM, 8 h, c terminus: a fixed tail appended
[3] = treatment: DMSO, c terminus: native
[4] = treatment: MLN4924 1 uM, 8 h, c terminus: native
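Note: 24-mer peptide tiles fused after GFP, lentivirally expressed, FACS-sorted into six equal bins by GFP/DsRed ratio, decoded by Illumina sequencing, PSI is the read-weighted mean bin number.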

Sequence | protein stability index [1] | protein stability index [2] | protein stability index [3] | protein stability index [4]
KLERLKQQNEDLRRMAESLRIPEG [FUT8] | 3.87 ± 0.28 | 4 ± 0.3 |  | 
KLLKQMRILWKKIQENQRNLYEEG [TRIM43] | 1.88 ± 0.61 | 1.85 ± 0.081 |  | 
KMAHVIAACLYLVCRTEGTPHMLL [BRF1] | 3.26 ± 0.64 | 2.84 ± 0.42 |  | 
KMNGSHRDQGSSALSGVGGIRLPN [IKZF1] | 4.1 ± 0.32 | 3.8 ± 0.12 |  | 
KNALEKYGPLKPLPQTPHLEEDLK [MYBL2] | 5.16 ± 0.38 | 5.11 ± 0.2 |  | 
KPSGALGSESYKSSAGSAEQTAPG [EHMT1] | 5.26 ± 0.39 | 5.43 ± 0.22 |  | 
KPSVDTEGPALVEIDRSVENTLLN [MIA2] | 4.99 ± 0.23 | 5.07 ± 0.26 |  | 
KQKYFYKGGLVWDENSSDGRYVKE [CLK3] | 3.53 ± 0.2 | 3.62 ± 0.043 |  | 
KQLRRQMWWRGCKIKAIMALVAAI [VAMP4] | 1.91 ± 0.44 | 1.92 ± 0.23 |  | 
KQQIANLDKQAKLSRAYDGTTYLP [USP39] | 3.62 ± 0.19 | 3.87 ± 0.41 |  | 
KRRKSMSGASPKESTNPEKAHETL [CDC25A] | 5.24 ± 0.25 | 5.03 ± 0.23 |  | 
KRRRSVTPPEEQQEAEEPKARVLR [CDC25B] | 5.32 ± 0.24 | 5.67 ± 0.21 |  | 
KRSQSMKSYPSSELRNMCDEHIAS [CLCN6] | 4.56 ± 0.34 | 4.734 ± 0.012 |  | 
KSEYMEIEEDMNNSIAHYRQVNIR [KCNA1] | 3.34 ± 0.2 | 3.57 ± 0.53 |  | 
KSKKYSDVEVPASVTGYSFASDGD [ADD1] | 4.68 ± 0.38 | 4.82 ± 0.22 |  | 
KSSIYESDFQIEPGFYATYESTLF [MIA2] | 2.33 ± 0.52 | 2.3 ± 0.31 |  | 
KTSAALSTVGSAISRKLGDMRNSA [TPD52L2] | 3.64 ± 0.29 | 3.7 ± 0.29 |  | 
KWLPQQNAAHSLLSTNDKTIKLWK [PPP2R2C] | 2.88 ± 0.096 | 3.09 ± 0.32 |  | 
KWWSDRLALFPLLPKVLQKYWCVT [ZBED1] | 2.93 ± 1 | 2.73 ± 0.61 |  | 
KYESVLQLGRALTAHLYSLLQTQH [ARFIP2] | 3.09 ± 0.24 | 2.85 ± 0.092 |  | 
LAKDFIRRLLVKDPKRRMTIAQSL [DAPK3] | 2.96 ± 0.3 | 2.7 ± 0.051 |  | 
LALEEPVDYKQSVLNVAGEAGGKQ [SLC6A17] | 4.91 ± 0.45 | 5.32 ± 0.14 |  | 
LALSPDLSLSNATVLTRSLFLGRI [FANCE] | 2.35 ± 0.36 | 2.24 ± 0.3 |  | 

Sequence | protein stability index [1] | protein stability index [2] | protein stability index [3] | protein stability index [4]
LASYLDRVRSLETENRRLESKIRE [KRT18] | 3.58 ± 0.34 | 3.7 ± 0.11 |  | 
LATRSNEKQELQELNDRFANFIEK [PRPH] | 4.43 ± 0.25 | 4.37 ± 0.095 |  | 
LCDVVLVVGAKKIYAHRVILSACS [KLHL20] | 2.7 ± 0.29 | 2.74 ± 0.39 |  | 
LCEYFSQHLGEYENVLAALEGLNL [NECAB1] | 2.61 ± 0.35 | 2.63 ± 0.22 |  | 
LCIIWFSFELLVRFFACPSKATFS [KCNA3] | 3.13 ± 0.39 | 3.12 ± 0.58 |  | 
LDMNFSLENREEPWVKELQDSKEM [ZNF449] | 5.31 ± 0.18 | 5.35 ± 0.32 |  | 
LEAVAGALVVALWGPLQDSLEHTL [TSPAN10] | 3.12 ± 0.95 | 3.57 ± 0.42 |  | 
LECVKFASHCLMNHPDLAKDLTEY [PDS5B] | 2.62 ± 0.17 | 2.77 ± 0.78 |  | 
LEDYINDRQYDSRGRFGELLLLLP [HNF4A] | 2.19 ± 0.32 | 2.22 ± 0.2 |  | 
LEEGKHSSHEVKALGAMWKLHKSQ [TRIM9] | 3.83 ± 0.22 | 4.22 ± 0.19 |  | 
LEKVLEENAQKKRFNQVLKNLLHA [VPS39] | 2.85 ± 0.22 | 2.98 ± 0.23 |  | 
LENREEPWVKELQDSKEMKQLLDS [ZNF449] | 5.49 ± 0.18 | 5.36 ± 0.23 |  | 
LETHFRDVSSTEEFLELSPQKLKE [GAN] | 5.38 ± 0.18 | 5.37 ± 0.084 |  | 
LFENSLCRLTHIPAYKVSGDKNEE [ZER1] | 4.05 ± 0.17 | 4.04 ± 0.12 |  | 
LFGEKLSGTDAEETILNAFKMLDP [MYL5] | 3.56 ± 0.28 | 3.31 ± 0.35 |  | 
LFTDRMATRSTTQSNRTSRLIGKK [WEE1] | 4.25 ± 0.1 | 4.4 ± 0.063 |  | 
LFYILTFVGAIFNGLTLLILGVIG [RTN2] | 2.7 ± 0.85 | 3.01 ± 0.67 |  | 
LHHKRLAKECMLQEENKSLREENK [CBY2] | 4.87 ± 0.39 | 4.89 ± 0.21 |  | 
LHQTIYNQACKLLSDDYEQVRSAA [INTS4] | 2.96 ± 0.48 | 3.09 ± 0.19 |  | 
LHRGQLSLFCLEDKELLCCSCQAD [TRIM35] | 2.68 ± 0.1 | 2.79 ± 0.31 |  | 
LHRTFDPHFLRVPCWKITLFVIVP [MOG] | 3.17 ± 0.56 | 3.08 ± 0.63 |  | 
LIPRTMADQQARRQERKPKDRRK [NFE2L1] |  |  | 5.32 ± 0.22 | 5.217 ± 0.028
LKDHFSHLLGIPHSVLQIRYSGKI [IQUB] | 2.19 ± 0.38 | 2.06 ± 0.39 |  | 

Sequence | protein stability index [1] | protein stability index [2] | protein stability index [3] | protein stability index [4]
LKKHGPICQKTATKKRKTFDSSRQ [ZC2HC1A] | 4.09 ± 0.26 | 4.13 ± 0.38 |  | 
LKKKQKRQAELLEKRLQEIEELER [SRPK2] | 4.2 ± 0.29 | 4.24 ± 0.49 |  | 
LKKSSQVPRTEAPAPASSTPQEPW [PDLIM7] | 4.74 ± 0.3 | 4.76 ± 0.46 |  | 
LKLLNHPNVIEYYENFLEDKALMI [NEK8] | 2.39 ± 0.4 | 2.34 ± 0.23 |  | 
LKPSWFDFGFAILGFAYAKEDKIM [MIA2] | 3.06 ± 0.61 | 2.34 ± 0.53 |  | 
LKQRTVIEMFKSITHSTVGSKGEK [EHMT1] | 3.16 ± 0.18 | 3.17 ± 0.33 |  | 
LKRRFSRLENRYEALAKQVASEMR [DAPK3] | 2.47 ± 0.26 | 2.69 ± 0.17 |  | 
LKTSEVTQHLPRECLPENLGGYVK [PTPN9] | 3.97 ± 0.38 | 3.73 ± 0.56 |  | 
LKYIGMAKREINKLLKQKEKKNE [ARL6IP1] |  |  | 3.7 ± 0.17 | 3.83 ± 0.31
LLCPLCQEEEQAETPMAPVPLGPL [TRIM15] | 3.38 ± 0.67 | 3.73 ± 0.35 |  | 
LLDQIREGAQLKKVEQNSRPVSCS [WASL] | 4.852 ± 0.026 | 4.63 ± 0.24 |  | 
LLFAGSSLASQVHAAAVNGDKGAL [INVS] | 2.61 ± 0.34 | 2.76 ± 0.21 |  | 
LLFKDLIKLFACYNDGVINLLEKF [SNAP91] | 3.04 ± 0.34 | 2.81 ± 0.87 |  | 
LLFPEEEATNGREGLLRFSSWPFS [AUP1] | 2.58 ± 0.23 | 2.51 ± 0.21 |  | 
LLGEIDLEKESDTPLQQVSIEEIL [LSM1] | 4.97 ± 0.16 | 4.93 ± 0.27 |  | 
LLGGDLRYHLQQNVHFKEETVKLF [STK32A] | 2.36 ± 0.41 | 2.6 ± 0.27 |  | 
LLIDFAYTSQITVEEGNVQTLLPA [KLHL20] | 2.29 ± 0.5 | 1.94 ± 0.12 |  | 
LLKPIPEYSPEEESEPPAPNIRNM [TRAF3IP2] | 5.12 ± 0.11 | 5.22 ± 0.37 |  | 
LLQCLEDLDANLRKLNSRLFVIRG [CRY1] | 2.67 ± 0.25 | 2.68 ± 0.29 |  | 
LLQTEPQNNQAKELERLIDKAMKK [FIS1] | 3.99 ± 0.19 | 4.27 ± 0.17 |  | 
LLRQLGRDAGATPSAAGAPASAPG [ANKRD9] | 4.12 ± 0.4 | 4.36 ± 0.15 |  | 
LLSIIATVMILPVTHTEISPEQQF [TMEM175] | 3.47 ± 0.95 | 3.02 ± 0.35 |  | 
LLWRKQLFCDVTLTAQGQQFHCHK [KLHL14] | 2.23 ± 0.41 | 1.99 ± 0.23 |  | 

Sequence | protein stability index [1] | protein stability index [2] | protein stability index [3] | protein stability index [4]
LMDEGASSEKKRQSSADGSQPPKK [RBBP5] | 5.56 ± 0.36 | 5.53 ± 0.24 |  | 
LMMRMGILGRGLQEYQLPYQRVLP [TCAP] | 2.48 ± 0.4 | 2.28 ± 0.25 |  | 
LMSLQNQLKESKSKIDALSSEKLN [CEP70] | 4.13 ± 0.15 | 4.05 ± 0.19 |  | 
LNFWNKQDTLELESPSLTSTPVCS [MYBL2] | 3.58 ± 0.12 | 3.63 ± 0.2 |  | 
LNMFLAIINDTYSEVKEELAGQKD [PKD2L1] | 2.21 ± 0.3 | 2.37 ± 0.43 |  | 
LPLRVSFCPLSLWRWQLYAAQSTK [CLPTM1] | 2.31 ± 0.29 | 2.24 ± 0.7 |  | 
LPPNNSYADFERFSKVLEEAAAAE [DAPK3] | 4.95 ± 0.57 | 5.07 ± 0.058 |  | 
LQARERGEEQVELSTIEELIKDAI [C2CD2L] | 4.14 ± 0.084 | 4.13 ± 0.19 |  | 
LQGVRLSENVVNRMKEPSSPPPAP [CHCHD6] | 4.62 ± 0.32 | 4.939 ± 0.047 |  | 
LQHMKAVQADQERERQRRLEVERE [LRRC59] | 5.24 ± 0.33 | 5.09 ± 0.27 |  | 
LQRHADEFLLDLGHHERSIMTDLY [FUT8] | 2.55 ± 0.21 | 2.69 ± 0.26 |  | 
LQRLRENAAHLGDKRRDLAHLAAE [TRIM39] | 4.13 ± 0.31 | 3.82 ± 0.28 |  | 
LQSEPHRAGVQWKFAGSFYFAITV [KCNK9] | 3.47 ± 0.43 | 2.82 ± 0.81 |  | 
LQYILAQIGFSVGLGNIWRFPYLC [SLC6A17] | 2.27 ± 0.16 | 2.88 ± 0.31 |  | 
LRALREKLFAHSSDLLSEFKKHDA [PPEF2] | 2.1 ± 0.33 | 2.29 ± 0.42 |  | 
LRRRLEELQQELSLKDQERVAEVS [LRRC45] | 4.07 ± 0.42 | 3.89 ± 0.32 |  | 
LSLCICGTAITSQYLAERYKVNTP [SLC35F2] | 2.83 ± 0.51 | 2.63 ± 0.42 |  | 
LSLLDNNIPGNSTLITAVELERFV [FBXO33] | 2.44 ± 0.95 | 2.36 ± 0.15 |  | 
LSLPYLPSGTPELEVPKPGQPSEP [CHIT1] | 5.09 ± 0.22 | 5.21 ± 0.15 |  | 
LSPPEQAAQPMQPLPESLASLHPS [PLAGL1] | 5.12 ± 0.16 | 4.93 ± 0.31 |  | 
